Laboratory results published in patent publication US20160185837A1 (Medimmune Limited, priority 2013, published 2016).
Where two headings read alike, the source gives them in different places. Ends that are not written are not given here.

Legend:
Assay type in all cases: cell-based
[1] = target: T1, rat GLP-1 receptor (rGLP-1r) (Rattus norvegicus, UniProt P32301); experiment: BSA-cAMP assay, cells expressing rat GLP-1 receptor; details: BSA-cAMP assay
T1 construct: expressed in transfected cells; host or cells: HEK293s or CHO cells
T1 sequence (P32301 22-463): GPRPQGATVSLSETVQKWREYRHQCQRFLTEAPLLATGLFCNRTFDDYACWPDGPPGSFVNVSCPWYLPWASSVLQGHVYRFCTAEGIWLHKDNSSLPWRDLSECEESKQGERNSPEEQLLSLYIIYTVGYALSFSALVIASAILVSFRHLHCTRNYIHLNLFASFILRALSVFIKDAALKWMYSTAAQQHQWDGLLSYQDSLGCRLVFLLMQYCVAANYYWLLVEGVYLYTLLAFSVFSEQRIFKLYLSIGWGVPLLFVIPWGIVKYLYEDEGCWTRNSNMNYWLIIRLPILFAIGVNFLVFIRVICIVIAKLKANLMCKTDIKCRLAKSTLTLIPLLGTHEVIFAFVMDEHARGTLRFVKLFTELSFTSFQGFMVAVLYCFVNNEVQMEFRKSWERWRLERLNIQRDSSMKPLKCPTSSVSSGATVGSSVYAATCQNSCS
Protocol: (§1) One basic cAMP assays was performed, differing in the medium used for the assay, the “BSA-cAMP assay”:
(§2) BSA-based assay medium: 0.1% bovine serum albumin (BSA) in
(§3) In certain aspects, the assay can also be carried out in medium supplemented with serum albumin that corresponds to the receptor being tested, e.g., human serum albumin for testing cAMP activity at hGIPr or hGLP-1r, rat serum albumin for testing cAMP activity at rGIPr or rGLP-1r, and so on. […] All sample dilutions were made in duplicate.
(§4) A frozen cryo-vial of cells expressing the receptor of interest was thawed rapidly in a water-bath, transferred to pre-warmed assay media and spun at 240×g for 5 minutes. Cells were re-suspended in assay buffer at an optimized concentration (e.g., hGLP-1r and hGIPr cells at 0.5×10^5 cells/ml).
(§5) To this, 5 μL cell suspension was added and the plates incubated at room temperature for 30 minutes.
(§6) cAMP levels were measured using a commercially available cAMP dynamic 2 HTRF kit (Cisbio, Cat #62AM4PEJ), following the two step protocol as per manufacturer's recommendations. In brief; anti-cAMP cryptate (donor fluorophore) and cAMP-d2 (acceptor fluorophore) were made up separately by diluting each 1/20 in conjugate & lysis buffer provided in the kit. 5 μL anti-cAMP cryptate was added to all wells of the assay plate, and 5 μL cAMP-d2 added to all wells except non-specific binding (NSB) wells, to which conjugate and lysis buffer was added. […] Data was transformed to % Delta F as described in manufacturer's guidelines and then transformed to percent activation of maximal native agonist response and analysed by 4-parameter logistic fit to determine EC50 values.
(§7) We used unconstrained 4 parameter logistic fit of data, curve mid-point to determine EC50. This was tested on two occasions, not two batches.
(§8) In order to be able to carry out in vivo studies in rodents, IP088 was tested for potency against the mouse receptors mGIPr and mGLP-1r as well as the rat receptors rGIPr and rGLP-1r, using cells expressing the respective receptors in the cAMP assay described above.

[2] = target: T2, mouse GLP-1 receptor (mGLP-1r) (Mus musculus, UniProt O35659); experiment: BSA-cAMP assay, cells expressing mouse GLP-1 receptor; details: BSA-cAMP assay
T2 construct: expressed in transfected cells; host or cells: HEK293s or CHO cells
T2 sequence (O35659 22-463): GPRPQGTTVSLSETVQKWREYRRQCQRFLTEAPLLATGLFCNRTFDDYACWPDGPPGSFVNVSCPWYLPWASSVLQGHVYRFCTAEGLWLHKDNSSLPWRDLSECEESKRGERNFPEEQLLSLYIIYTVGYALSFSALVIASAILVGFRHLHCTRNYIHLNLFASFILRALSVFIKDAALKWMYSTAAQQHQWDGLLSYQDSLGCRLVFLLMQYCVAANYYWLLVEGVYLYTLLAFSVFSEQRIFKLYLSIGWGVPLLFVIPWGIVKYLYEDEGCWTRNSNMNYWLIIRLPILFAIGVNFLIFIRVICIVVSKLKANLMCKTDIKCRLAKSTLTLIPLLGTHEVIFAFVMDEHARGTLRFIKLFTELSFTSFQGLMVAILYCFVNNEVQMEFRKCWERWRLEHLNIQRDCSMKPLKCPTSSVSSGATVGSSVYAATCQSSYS
Protocol: as §1, §2, §3, §4, §5, §6, §7, §8

[3] = target: T3, human GLP-1 receptor (hGLP-1r) (Homo sapiens, UniProt P43220); experiment: BSA-cAMP assay, cells expressing human GLP-1 receptor; details: BSA-cAMP assay
T3 construct: expressed in transfected cells
T3 sequence (P43220 24-463): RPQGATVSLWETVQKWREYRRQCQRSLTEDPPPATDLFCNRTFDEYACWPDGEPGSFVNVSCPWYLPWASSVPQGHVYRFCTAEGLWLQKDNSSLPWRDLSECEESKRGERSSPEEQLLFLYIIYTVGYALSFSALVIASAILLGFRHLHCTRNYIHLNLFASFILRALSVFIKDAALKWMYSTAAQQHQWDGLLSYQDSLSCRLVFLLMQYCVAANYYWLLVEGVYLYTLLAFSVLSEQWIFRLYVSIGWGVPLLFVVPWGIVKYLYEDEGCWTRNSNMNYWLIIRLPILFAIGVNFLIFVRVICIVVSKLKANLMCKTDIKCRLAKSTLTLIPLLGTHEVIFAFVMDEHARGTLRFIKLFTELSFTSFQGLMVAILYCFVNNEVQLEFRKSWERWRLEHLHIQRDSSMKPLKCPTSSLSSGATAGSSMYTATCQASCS
Protocol: as §1, §2, §3, §4, §5, §6, §7

rat GIP receptor (rGIPr) = target: T4, rat GIP receptor (rGIPr) (Rattus norvegicus, UniProt P43219); experiment: BSA-cAMP assay, cells expressing rat GIP receptor; details: BSA-cAMP assay
T4 construct: expressed in transfected cells; host or cells: HEK293s or CHO cells
T4 sequence (P43219 19-455): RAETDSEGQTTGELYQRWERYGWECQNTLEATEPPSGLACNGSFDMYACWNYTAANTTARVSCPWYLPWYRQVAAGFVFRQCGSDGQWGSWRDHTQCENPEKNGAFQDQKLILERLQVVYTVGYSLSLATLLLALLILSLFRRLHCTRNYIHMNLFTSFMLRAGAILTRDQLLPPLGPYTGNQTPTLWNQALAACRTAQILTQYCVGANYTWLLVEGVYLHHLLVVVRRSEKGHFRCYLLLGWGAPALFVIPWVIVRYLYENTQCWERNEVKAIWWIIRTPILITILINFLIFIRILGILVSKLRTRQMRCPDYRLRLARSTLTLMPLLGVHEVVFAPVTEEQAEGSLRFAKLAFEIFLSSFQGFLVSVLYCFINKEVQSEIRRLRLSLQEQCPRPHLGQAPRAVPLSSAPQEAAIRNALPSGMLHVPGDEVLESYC
Protocol: as §1, §2, §3, §4, §5, §6, §7, §8

[4] = target: T5, human glucagon receptor (GCGr) (Homo sapiens, UniProt P47871); experiment: BSA-cAMP assay, cells expressing human glucagon receptor
T5 construct: expressed in transfected cells; host or cells: HEK293s or CHO cells
T5 sequence (P47871 26-477): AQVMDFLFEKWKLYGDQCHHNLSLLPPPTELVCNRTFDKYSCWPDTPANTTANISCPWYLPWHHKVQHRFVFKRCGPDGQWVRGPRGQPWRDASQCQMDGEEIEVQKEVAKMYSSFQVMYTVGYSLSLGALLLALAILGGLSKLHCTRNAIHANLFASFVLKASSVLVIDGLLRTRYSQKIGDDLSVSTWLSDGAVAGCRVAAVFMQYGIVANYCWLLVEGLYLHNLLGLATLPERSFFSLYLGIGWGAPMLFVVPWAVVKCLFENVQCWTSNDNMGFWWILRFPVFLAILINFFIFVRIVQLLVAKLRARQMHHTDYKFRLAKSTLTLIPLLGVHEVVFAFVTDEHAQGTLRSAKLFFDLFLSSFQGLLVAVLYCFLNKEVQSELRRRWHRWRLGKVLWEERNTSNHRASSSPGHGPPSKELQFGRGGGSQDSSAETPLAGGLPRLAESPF
Protocol: as §1, §2, §3, §4, §5, §6, §7

[5] = target: T6, mouse GIP receptor (mGIPr) (Mus musculus, UniProt Q0P543); experiment: BSA-cAMP assay, cells expressing mouse GIP receptor; details: BSA-cAMP assay
T6 construct: expressed in transfected cells; host or cells: HEK293s or CHO cells
T6 sequence (Q0P543 19-460): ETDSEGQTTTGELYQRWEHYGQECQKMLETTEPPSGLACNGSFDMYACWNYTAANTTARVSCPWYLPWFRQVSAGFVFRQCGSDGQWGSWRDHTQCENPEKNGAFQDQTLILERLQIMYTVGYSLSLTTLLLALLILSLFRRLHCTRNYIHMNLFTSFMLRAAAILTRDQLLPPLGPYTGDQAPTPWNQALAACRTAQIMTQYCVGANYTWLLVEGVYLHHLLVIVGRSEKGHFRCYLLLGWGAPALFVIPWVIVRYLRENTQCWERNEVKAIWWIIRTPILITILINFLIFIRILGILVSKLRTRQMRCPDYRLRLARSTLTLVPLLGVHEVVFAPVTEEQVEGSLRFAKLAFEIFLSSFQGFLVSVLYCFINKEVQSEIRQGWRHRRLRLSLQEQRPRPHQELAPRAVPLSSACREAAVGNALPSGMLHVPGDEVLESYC
Protocol: as §1, §2, §3, §4, §5, §6, §7, §8

[6] = target: T7, human GIP receptor (hGIPr) (Homo sapiens, UniProt P48546); experiment: BSA-cAMP assay, cells expressing human GIP receptor; details: BSA-cAMP assay
T7 construct: expressed in transfected cells
T7 sequence (P48546 22-466): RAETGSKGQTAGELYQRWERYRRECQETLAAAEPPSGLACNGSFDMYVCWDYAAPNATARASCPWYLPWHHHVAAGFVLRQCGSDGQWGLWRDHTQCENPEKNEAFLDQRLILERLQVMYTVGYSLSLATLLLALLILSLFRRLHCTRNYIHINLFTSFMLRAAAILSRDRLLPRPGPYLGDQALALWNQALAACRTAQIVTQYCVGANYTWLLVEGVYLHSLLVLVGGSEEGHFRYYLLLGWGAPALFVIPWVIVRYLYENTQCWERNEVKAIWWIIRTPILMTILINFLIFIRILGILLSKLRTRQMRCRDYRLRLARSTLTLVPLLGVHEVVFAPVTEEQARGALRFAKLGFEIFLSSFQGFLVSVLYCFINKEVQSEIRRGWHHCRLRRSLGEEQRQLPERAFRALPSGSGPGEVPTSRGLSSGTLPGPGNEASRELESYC
Protocol: For human GIPr, two different lines were used, shown as “hGIPr” and “hGIPr (C3)” in Table 11.
as §1, §2, §3, §4, §5, §6, §7

[7] = batch 1 unless a batch is given, read-out: cAMP activity hGLP1r (EC50)
[8] = batch 1 unless a batch is given, read-out: cAMP activity hGCGr (EC50)
[9] = batch 1 unless a batch is given, read-out: cAMP activity hGIPr (EC50)
[10] = Batch 1, read-out: hGLP1r cAMP activity EC50
[11] = Batch 1, read-out: hGCGr cAMP activity EC50
[12] = Batch 1, read-out: mGIPr cAMP activity EC50
[13] = Batch 1, read-out: rGLP1r cAMP activity EC50
[14] = Batch 1, read-out: mGLP1r cAMP activity EC50
[15] = Batch 1, read-out: rGIPr cAMP activity EC50
[16] = Batch 1, read-out: hGIPr cAMP activity EC50

EC50 ([1]; read-out: cAMP activity rGLP1r (EC50)) [nM] | EC50 ([2]; read-out: cAMP activity mGLP1r (EC50)) [nM] | EC50 [3, 7] [nM] | EC50 (rat GIP receptor (rGIPr); read-out: cAMP activity rGIPr (EC50)) [nM] | EC50 [4, 8] [nM] | EC50 ([5]; read-out: cAMP activity mGIPr (EC50)) [nM] | EC50 [6, 9] [nM] | EC50 [3, 10] [nM] | EC50 [4, 11] [nM] | EC50 [5, 12] [nM] | EC50 [1, 13] [nM] | EC50 [2, 14] [nM] | EC50 (rat GIP receptor (rGIPr); [15]) [nM] | EC50 [6, 16] [nM] | Substance
 |  |  |  |  |  |  | 0.082 | 21 | 2.6 |  |  |  |  | IP420: Fc fusion, IgG1-TM, SEQ ID NO:391; agonist peptide YSEGTFTSDYSKLLEEEATRLFIEWLLAGG (YSEGTFTSDYSKLLEEEATRLFIEWLLAGGGGGGSGGGGSGGGGSGGGGSATHTCPPC)
 |  |  |  |  |  |  | 230 | ≥ 1100 | 3.2 | 47 | > 1130 | 1.7 | 0.26 | IP305: Fc fusion, IgG1-TM(ΔK), SEQ ID NO:430; agonist peptide YSEGTFISDYSIALAAAAVRDFVNWLLAGG (YSEGTFISDYSIALAAAAVRDFVNWLLAGGGGGGGSGGGGSGGGGSGGGGSATHTCPPC)

More lines, now with the values behind:

Substance | EC50 ([1]; read-out: cAMP activity rGLP1r (EC50)) [nM] | EC50 ([2]; read-out: cAMP activity mGLP1r (EC50)) [nM] | EC50 [3, 7] [nM] | EC50 (rat GIP receptor (rGIPr); read-out: cAMP activity rGIPr (EC50)) [nM] | EC50 [4, 8] [nM] | EC50 ([5]; read-out: cAMP activity mGIPr (EC50)) [nM] | EC50 [6, 9] [nM] | EC50 [3, 10] [nM] | EC50 [4, 11] [nM] | EC50 [5, 12] [nM] | EC50 [1, 13] [nM] | EC50 [2, 14] [nM] | EC50 (rat GIP receptor (rGIPr); [15]) [nM] | EC50 [6, 16] [nM]
IP275: Fc fusion, IgG1-TM, SEQ ID NO:332; agonist peptide YSEGTFTSDYSKLLEKEAQRLFIEWLLKGP (YSEGTFTSDYSKLLEKEAQRLFIEWLLKGPGGGGGSGGGGSGGGGSGGGGSATHTCPPC) | 0.062 | 1.7 | 0.92 | 0.014 | 230 | 0.26 | 0.0087 |  |  |  |  |  |  | 
IP196 (HGEGTFTSDVSSYLEGQAAKEFIAWLVKGAAAGGSGSTASSGSGSATGGGGAPEF; /note=“Description of Artificial Sequence Synthetic Peptide-linker-hinge polypeptide”) |  |  | 0.073 |  |  |  |  |  |  |  |  |  |  | 
IP311 (YSEGTFISDYSIALAAAAIDDFVNWLLAGGGGGGGSGGGGSGGGGSGGGGSATHTCPPC) |  |  |  |  |  |  |  | 670 | > 2420 | 0.95 | 61 | 1500 | 0.43 | 0.074
IP302 (YSEGTFISDYSIALAAAAQQDFVNWLLAGGGGGGGSGGGGSGGGGSGGGGSATHTCPPC) |  |  |  |  |  |  |  | 26 | 1200 | 0.083 | 7 | 93 | 0.055 | 0.018
IP193 (HGEGTFTSDVSSYLEGQAAKEFIAWLVKGAAAGGSGSTASSGSGSATGGGGCPPCPAPEF; also: forms dimer via hinge disulfides) |  |  | 0.064 |  | 780 |  | 450 |  |  |  |  |  |  | 
